Where a chain is given by its changes, count along the chain named. Where two headings read alike, the source gives them in different places.
T1: recombinant dog PD-L1-Fc (70110-DO2H, Sino Biological Inc.) (dog, UniProt E2RKZ5 19-236, Biotinylated on lysines/amines (EZ-Link Sulfo-NHS-LC-Biotin); positions not defined)
T1 construct: Bought; also called Dog PD-L1-Fc-Biotin; canine PD-L1; not shown: Fc part and any linker of the bought fusion (Sino Biological 70110-DO2H)
T1 sequence: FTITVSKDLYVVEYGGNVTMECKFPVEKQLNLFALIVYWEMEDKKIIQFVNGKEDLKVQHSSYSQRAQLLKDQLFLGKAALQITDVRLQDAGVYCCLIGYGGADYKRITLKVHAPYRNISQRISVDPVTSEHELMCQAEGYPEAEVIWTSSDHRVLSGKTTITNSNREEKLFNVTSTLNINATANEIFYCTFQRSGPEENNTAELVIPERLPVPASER

B1: anti-PD-L1 fully human antibody YN-002 (antibody, human IgG1, lambda, V domains shown)
VH: QVQLVQSGAEVRKPGSSVKVSCKASGGTFSSYAISWVRQAPGQGLEWMGRIIPILGIANYAQKFQGRVTITADKSTSTAYMELSSLRSEDTAVYYCARTMDGYSYGNFDYWGQGTLVTVSS
VL: QSALTQPASVSGSPGQSITISCTGTSSDVGGYNYVSWYQQHPGKAPKLLIYGNSNRPSGVPDRFSGSKSGTSASLAITGLQAEDEADYYCQSYDSSLSGSVFGGGTKLTVLG
notes: Intact IgG1,lambda antibody of phage antibody 1B10, expressed in 293F cells
B2: anti-PD-L1 fully human antibody YN-003 (antibody, human IgG1, lambda, V domains shown)
VH: B1 VH with R12K
VL: B1 VL with L49M, P61S, D62N, T71N, S72T, A76T, T78S
notes: Germline version of YN-002; IgG1,lambda
B3: PD-L1 antibody YN-035 (antibody, human IgG1, lambda, V domains shown)
VH: B1 VH with R12K, G26R, T28P, S31T, D101E, S104G, Y105F
VL: QSALTQPASVSGSPGQSITISCTGTVSEVGGYNEVSWYQQHPGKAPKLMIYGNSNRPSGVSNRFSGSKSGNTASLTISGLQAEDEADYYCQSYDSSLSGTVFGGGTKLTVLG
notes: full-length IgG1,lambda
B4: anti-PD-L1/CD137 bispecific antibody YN-051 (bispecific antibody, human IgG1, lambda, N297A)
heavy: not shown
light: QSALTQPASVSGSPGQSITISCTGTVSEVGGYNEVSWYQQHPGKAPKLMIYGNSNRPSGVSNRFSGSKSGNTASLTISGLQAEDEADYYCQSYDSSLSGTVFGGGTKLTVLGQPKAAPSVTLFPPSSEELQANKATLVCLISDFYPGAVTVAWKADSSPVKAGVETTTPSKQSNNKYAASSYLSLTPEQWKSHRSYSCQVTHEGSTVEKTVAPTECS
notes: First polypeptide (built from the YN-035 heavy chain and the YN-006 heavy and light chain genes) and second polypeptide (= YN-035 light chain); SDS-PAGE: about 200 kDa non-reduced, about 75 and 25 kDa reduced
B5: anti-PD-L1/CD137 bispecific antibody YN-007 (bispecific antibody)
heavy: not shown
light: B4 light with V26S, E28D, E34Y, T100S
notes: First polypeptide (built from the YN-003 heavy chain and the YN-006 heavy and light chain genes) and second polypeptide (= YN-003 light chain); SDS-PAGE: about 200 kDa non-reduced, about 75 and 25 kDa reduced
B6: anti-PD-L1/CD137 bispecific antibody YN-052 (bispecific antibody, human IgG1, lambda, N297A)
heavy: not shown
light: B4 light
notes: First polypeptide (built from the YN-036 heavy chain and the YN-006 heavy and light chain genes) and second polypeptide (= YN-036 light chain); SDS-PAGE: about 200 kDa non-reduced, about 75 and 25 kDa reduced

Tests used:
[1] = target: T2, mouse PD-L1 on CHO cells that stably expressed mouse PD-L1 (mouse, UniProt Q9EP73 19-290); test: flow cytometry competition: biotin-labelled mouse PD-1-Fc at a subsaturated concentration on CHO cells stably expressing mouse PD-L1, antibody titrated, streptavidin R-PE detection
T2 construct: whole, on cells; also called CHO cells expressing mouse PD-L1
T2 sequence (Q9EP73 19-290): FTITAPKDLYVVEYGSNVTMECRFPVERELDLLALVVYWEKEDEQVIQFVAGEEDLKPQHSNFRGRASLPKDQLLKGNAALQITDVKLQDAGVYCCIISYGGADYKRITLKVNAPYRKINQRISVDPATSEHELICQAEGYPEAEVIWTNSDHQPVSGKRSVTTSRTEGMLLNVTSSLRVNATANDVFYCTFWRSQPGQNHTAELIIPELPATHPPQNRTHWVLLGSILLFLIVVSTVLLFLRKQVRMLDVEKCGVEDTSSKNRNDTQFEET
Experimental: After cell washing, Streptavidin R-PE Conjugate (life technology, SA10041) was added and incubated (4° C., 30 min). After cell washing, the fluorescence intensity was detected by flow cytometer (Intellicyt iQue Screener).

[2] = target: T3, recombinant Macaca fascicularis PD-L1-Fc (90251-CO2H, Sino Biological Inc.) (Macaca fascicularis, UniProt G7PSE7 19-239); test: BLI (Octet RED384), biotinylated antigen on SA sensor, antibody in solution
T3 construct: Bought; also called Macaca Fascicularis PD-L1-Fc-Biotin; not shown: Fc part
T3 sequence (G7PSE7 entry or part of it): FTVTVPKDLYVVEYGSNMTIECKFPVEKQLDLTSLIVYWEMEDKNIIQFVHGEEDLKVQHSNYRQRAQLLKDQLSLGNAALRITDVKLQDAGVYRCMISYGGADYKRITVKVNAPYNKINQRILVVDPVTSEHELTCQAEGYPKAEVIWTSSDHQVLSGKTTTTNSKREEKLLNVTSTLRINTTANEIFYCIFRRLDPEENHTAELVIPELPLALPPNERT
Experimental: (§1) The antigen-antibody binding kinetics were analyzed by a biofilm interference (BLI) technology, using a molecular interaction analyzer (Octet RED384, purchased from Pall ForteBio Analytics Co., Ltd.) and using a PBS buffer containing 0.1% BSA and 0.02% Tween 20. A biotin-coupled antigen protein with a concentration of 50 nM was fixed with the SA sensor (Pall ForteBio Analytics Co., Ltd.), and bound at 1500 rpm for 10 minutes; then it was bound with the double-diluted antibody solution at 1500 rpm for 10 minutes; and finally dissociated at 1500 rpm for 10 minutes. The obtained results would be analyzed by Octet Data Analysis 9.0 software (Pall ForteBio Analytics Co., Ltd.) to give the KD, Kₒₙ (1/Ms) and Koff (1/s).

[3] = target: T4, recombinant mouse PD-L1-Fc protein (M5251, ACROBiosystems Inc.) (mouse, UniProt Q9EP73 19-238); test: as above
T4 construct: Bought; Labeled with biotin for the BLI assays; unlabeled in the phage ELISA; also called Mouse PD-L1-Fc-Biotin; not shown: Fc part
T4 sequence (Q9EP73 19-238 limits assumed): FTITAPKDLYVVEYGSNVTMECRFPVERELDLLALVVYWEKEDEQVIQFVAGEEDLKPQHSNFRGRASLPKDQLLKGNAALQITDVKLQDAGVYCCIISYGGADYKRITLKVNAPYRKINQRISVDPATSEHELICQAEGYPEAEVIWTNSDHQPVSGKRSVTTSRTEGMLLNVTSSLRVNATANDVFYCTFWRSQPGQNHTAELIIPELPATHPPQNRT
Experimental: as §1

[4] = target: T5, recombinant human PD-L1-Fc protein (Origincell Therapeutics Co., Ltd.) (human, UniProt Q9NZQ7 19-238, limits assumed); test: as above
T5 construct: Labeled with biotin (EZ-Link Sulfo-NHS-LC-Biotin) for the BLI assays; unlabeled in the phage ELISA; also called Human PD-L1-Fc-Biotin; not shown: Fc part
T5 sequence (Q9NZQ7 19-238 limits assumed): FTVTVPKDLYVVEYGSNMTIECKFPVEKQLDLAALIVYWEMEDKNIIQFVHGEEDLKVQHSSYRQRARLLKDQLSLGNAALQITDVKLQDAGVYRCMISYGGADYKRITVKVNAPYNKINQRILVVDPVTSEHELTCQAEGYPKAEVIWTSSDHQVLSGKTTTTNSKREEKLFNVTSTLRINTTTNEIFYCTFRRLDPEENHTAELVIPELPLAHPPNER
Experimental: as §1

[5] = target: T1, recombinant dog PD-L1-Fc (70110-DO2H, …); test: as above
Experimental: as §1

[6] = target: T6, human PD-L1 on cells (CHO cells that stably expressed human PD-L1; MDA-MB-231 cells) (human, UniProt Q9NZQ7 19-290); test: flow cytometry competition: biotin-labelled human PD-1-Fc at a subsaturated concentration on CHO cells stably expressing human PD-L1, antibody titrated, streptavidin R-PE detection
T6 construct: whole, on cells; Stably expressed on CHO cells; also called CHO cells expressing human PD-L1
T6 sequence (Q9NZQ7 19-290): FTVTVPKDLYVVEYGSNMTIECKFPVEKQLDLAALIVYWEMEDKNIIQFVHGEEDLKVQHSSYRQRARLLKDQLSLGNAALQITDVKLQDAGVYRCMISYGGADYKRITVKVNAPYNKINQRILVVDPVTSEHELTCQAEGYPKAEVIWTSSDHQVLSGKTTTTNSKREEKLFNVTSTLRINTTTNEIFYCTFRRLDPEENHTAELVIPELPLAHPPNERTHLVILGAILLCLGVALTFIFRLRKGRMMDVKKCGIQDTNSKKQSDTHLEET
Experimental: (§2) After cell washing, Streptavidin R-PE Conjugate (life technology, SA10041) was added and incubated (4° C., 30 min). After cell washing, the fluorescence intensity was detected by a flow cytometer (Intellicyt iQue Screener).

[7] = target: T6, human PD-L1 on cells (CHO cells that …); test: flow cytometry on CHO cells stably expressing human PD-L1, anti-human IgG-Fc DyLight 650 detection
Experimental: The mixture was mixed well and incubated at 4° C. for 1 hr. After cell washing, Goat F(ab)₂ Anti-Human IgG-Fc (DyLight 650) (ab98593, Abcam) was added and incubated at 4° C. for 30 min. After cell washing, the fluorescence intensity was detected by a flow cytometer (Intellicyt iQue Screener).

[8] = target: T2, mouse PD-L1 on CHO cells that stably …; test: flow cytometry competition: biotin-labelled mouse PD-1-Fc at a subsaturated concentration on CHO cells stably expressing mouse PD-L1, antibody titrated, streptavidin R-PE detection; remark: listed apart in the source
Experimental: as §2

[9] = target: T2, mouse PD-L1 on CHO cells that stably …; test: flow cytometry on CHO cells stably expressing mouse PD-L1, anti-human IgG-Fc DyLight 650 detection
Experimental: The mixture was mixed well and incubated at 4° C. for 1 hr. After cell washing, Goat F(ab′)₂ Anti-Human IgG-Fc (DyLight 650) (ab98593) was added and incubated at 4° C. for 30 min. After cell washing, the fluorescence intensity was detected by a flow cytometer (Intellicyt iQue Screener).

[10] = target: T6, human PD-L1 on cells (CHO cells that …); test: flow cytometry competition: biotin-labelled human PD-1-Fc at a subsaturated concentration on CHO cells stably expressing human PD-L1, antibody titrated, streptavidin R-PE detection; remark: listed apart in the source
Experimental: as §2

[11] = target: T6, human PD-L1 on cells (CHO cells that …); test: flow cytometry on MDA-MB-231 cells (human PD-L1), anti-human IgG-Fc DyLight 650 detection
Experimental: Human breast cell strain MDA-MB-231 (Shanghai Chinese Academy of Sciences Cell Library) highly expresses the human PD-L1 molecule. […] After cell washing, Goat F(ab′)₂ Anti-Human IgG-Fc (DyLight 650) (ab98593, abcam) was added and incubated at 4° C. for 30 min. After cell washing, the fluorescence intensity was detected by a flow cytometer (Intellicyt iQue Screener).

[12] = target: T2, mouse PD-L1 on CHO cells that stably …; test: flow cytometry competition: biotin-labelled mouse PD-1-Fc at a subsaturated concentration on CHO cells stably expressing mouse PD-L1, antibody titrated, streptavidin R-PE detection; remark: listed apart in the source
Experimental: as §2

[13] = target: T6, human PD-L1 on cells (CHO cells that …); test: flow cytometry on CHO cells stably expressing human PD-L1, anti-human IgG-Fc DyLight 650 detection; remark: listed apart in the source
Experimental: After cell washing, Goat F(ab′)₂ Anti-Human IgG-Fc (DyLight 650) (ab98593, abcam) was added and incubated at 4° C. for 30 min. After cell washing, the fluorescence intensity was detected by a flow cytometer (Intellicyt iQue Screener).

[14] = target: T7, recombinant human PD-L1-His protein (Origincell Therapeutics Co., Ltd.) (human, UniProt Q9NZQ7 19-238, limits assumed); test: BLI (Octet RED384), antibody on AHC sensor, PD-L1-His in solution
T7 construct: not shown: His tag
T7 sequence (Q9NZQ7 19-238 limits assumed): as the sequence (Q9NZQ7 19-238 limits assumed) above

[15] = target: T8, recombinant human CD137-His protein (Origincell Therapeutics Co., Ltd.) (human, UniProt Q07011 24-186, limits assumed); test: BLI (Octet RED384), antibody on AHC sensor, CD137-His in solution
T8 construct: also called Human 4-1BB-His; not shown: His tag
Experimental: (§3) The antigen-antibody binding kinetics were analyzed by the biofilm interference (BLI) technology, using a molecular interaction analyzer (Octet RED384, purchased from Pall ForteBio Analytics Co., Ltd.) and using a PBS buffer containing 0.1% BSA and 0.02% Tween 20. […] The AHC sensor was regenerated by glycine pulses and then reused. The obtained results would be analyzed by Octet Data Analysis 9.0 software (Pall ForteBio Analytics Co., Ltd.) to give the KD, Kₒₙ (1/Ms) and Koff (1/s).

[16] = target: T7, recombinant human PD-L1-His protein …; test: BLI (Octet RED384), antibody on AHC sensor, PD-L1-His in solution; remark: listed apart in the source
Experimental: as §3

[17] = target: T4, recombinant mouse PD-L1-Fc protein …; test: BLI (Octet RED384), biotinylated antigen on SA sensor, antibody in solution; remark: listed apart in the source
Experimental: as §3, with “The recombinant human PD-L1-Fc protein and the recombinant mouse PD-L1-Fc were labeled with biotin (EZ-Link Sulfo-NHS-LC-Biotin, Pierce, 21327). The” for “The”, “The” for “The AHC sensor was regenerated by glycine pulses and then reused. The”

[18] = target: T5, recombinant human PD-L1-Fc protein …; test: as above; remark: listed apart in the source
Experimental: as §3, with “The recombinant human PD-L1-Fc protein and the recombinant mouse PD-L1-Fc were labeled with biotin (EZ-Link Sulfo-NHS-LC-Biotin, Pierce, 21327). The” for “The”, “The” for “The AHC sensor was regenerated by glycine pulses and then reused. The”

Binder	IC50 (read off the curve) [1] [µg/mL]	Kd [2] [nM]	koff [2] [s⁻¹]	kon [2] [M⁻¹ s⁻¹]	Kd [3] [nM]	koff [3] [s⁻¹]	kon [3] [M⁻¹ s⁻¹]	Kd [4] [nM]	koff [4] [s⁻¹]	kon [4] [M⁻¹ s⁻¹]	Kd [5] [nM]	koff [5] [s⁻¹]	kon [5] [M⁻¹ s⁻¹]	IC50 (read off the curve) [6]	IC50 (read off the curve) [8] [nM]	IC50 (read off the curve) [10] [nM]	EC50 (read off the curve) [11] [nM]	Kd [15] [nM]	koff [15] [s⁻¹]	kon [15] [M⁻¹ s⁻¹]	also measured
B1	~0.1	1.07	0.0019	1.77e+06	1.72	0.00168	977000	0.888	0.000594	669000	0.743	0.000759	1.02e+06	~1 µg/mL							
B2	~0.06	0.654	0.00136	2.08e+06	0.996	0.000997	1.03e+06	0.408	0.000611	1.5e+06	0.594	0.000514	864000	~0.2 µg/mL							
B3														~3 nM	~5	~2	~0.9				EC50 (read off the curve) [7]: 3 to 4 nM; EC50 (read off the curve) [9]: ~6 nM; IC50 (read off the curve) [12]: ~3 nM; EC50 (read off the curve) [13]: ~4 nM; Kd [14]: 0.452 nM; koff [14]: 0.000193 s⁻¹; kon [14]: 427000 M⁻¹ s⁻¹
B4															~5	~2	~1	1.64	0.000147	89900	Kd [16]: 0.517 nM; koff [16]: 0.000275 s⁻¹; kon [16]: 532000 M⁻¹ s⁻¹
B5																					Kd [17]: 1.34 nM; koff [17]: 0.00109 s⁻¹; kon [17]: 810000 M⁻¹ s⁻¹; Kd [18]: 0.525 nM; koff [18]: 0.000592 s⁻¹; kon [18]: 1.13e+06 M⁻¹ s⁻¹
B6															~5	~3	~2	2.08	0.000174	83700	Kd [16]: 0.572 nM; koff [16]: 0.000257 s⁻¹; kon [16]: 448000 M⁻¹ s⁻¹

Reference: patent US20210261677A1 (ORICELL THERAPEUTICS, published 2021)
